The values that follow come from publication PMC2847215.

Read-outs that look alike come from different tables or passages of the source.

What all share (assay): EMSA
For data set [1], the target named is T1, rMcrA-S (UniProt P24200 1-277).
T1 sequence: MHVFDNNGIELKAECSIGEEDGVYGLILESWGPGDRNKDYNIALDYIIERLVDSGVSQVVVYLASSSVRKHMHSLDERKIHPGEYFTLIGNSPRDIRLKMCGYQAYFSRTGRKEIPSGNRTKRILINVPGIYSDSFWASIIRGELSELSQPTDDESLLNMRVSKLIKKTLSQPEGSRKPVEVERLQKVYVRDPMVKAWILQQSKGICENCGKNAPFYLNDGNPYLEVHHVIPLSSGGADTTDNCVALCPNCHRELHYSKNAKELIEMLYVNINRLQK

Data set [2] addresses T1, rMcrA-S. The source holds these as a separate data set.
Data set [3] deals with T1, rMcrA-S. The source holds these as a separate data set.
Data set [4] deals with T1, rMcrA-S. This is another data set of the same source.

B1: CCGG cassette (oligos 17/18) (dsDNA)
DNA 1: CCCTCTGCCGGAGGAGGATCCTGC
DNA 2: GCAGGATCCTCCTCCGGCAGAGGG
modifications: m5C9 strand 1, m5C15 strand 2 (M.SssI)
For the molecule B1, in the data set with rMcrA-S [1], the binding result is “binds”.

B2: TCGA cassette (dsDNA)
DNA 1: CCCTCTGTCGAAGGAGGCTCCTGC
DNA 2: GCAGGAGCCTCCTTCGACAGAGGG
modifications: m5C9 strand 1, m5C15 strand 2 (M.SssI)
As to B2, the binding result with rMcrA-S [1] is “binds”.

B3: CGA and ACGA cassette (dsDNA)
DNA 1: CCCTCTGACGAAGGAGGCTCCTGC
DNA 2: GCAGGAGCCTCCTTCGTCAGAGGG
modifications: m5C9 strand 1, m5C15 strand 2 (M.SssI)
Consider B3, for which the binding result in the data set with rMcrA-S [2] was “binds”.

B4: C/G hemimethylated HpaII cassette (dsDNA)
DNA 1: GCCTTCAGCGCCGGCGGATCCAGT
DNA 2: ACTGGATCCGCCGGCGCTGAAGGC
modifications: m5C12 in strand 1 only
Take B4: the binding result with rMcrA-S [3] was “binds”.

B5: TCGG cassette (dsDNA)
DNA 1: CCCTCTGTCGGAGGAGGCTCCTGC
DNA 2: GCAGGAGCCTCCTCCGACAGAGGG
modifications: m5C9 strand 1, m5C15 strand 2 (M.SssI)
On to B5, for which, in the data set with rMcrA-S [1], the binding result is “binds”.

B6: unmethylated cassette (oligos 7/8) (dsDNA)
DNA 1: GCCTTCAGCGCCGGCGGATCCAGT
DNA 2: ACTGGATCCGCCGGCGCTGAAGGC
As for B6, the binding result in the data set with rMcrA-S [3] is “no binding”.

B7: GCGA cassette (dsDNA)
DNA 1: CCCTCTGGCGAAGGAGGCTCCTGC
DNA 2: GCAGGAGCCTCCTTCGCCAGAGGG
modifications: m5C9 strand 1, m5C15 strand 2 (M.SssI)
Regarding B7, in the data set with rMcrA-S [2], the binding result was “binds”.

B8: cassette CCGG, single symmetric m5C in HpaII site (dsDNA)
DNA 1: GCCTTCAGCGCCGGCGGATCCAGT
DNA 2: ACTGGATCCGCCGGCGCTGAAGGC
modifications: m5C12 in strand 1 and m5C12 in strand 2 (positions from site name)
Turning to B8, the binding result in the data set with rMcrA-S [4] was “binds”.

B9: C/A mismatch cassette (dsDNA)
DNA 1: GCCTTCAGCGCCGGCGGATCCAGT
DNA 2: ACTGGATCCGCCAGCGCTGAAGGC
modifications: m5C12 in strand 1 only
Consider B9, for which the binding result in the data set with rMcrA-S [3] is “no binding”.

B10: CGT cassette (dsDNA)
DNA 1: CCCTCTGACGTAGGAGGCTCCTGC
DNA 2: GCAGGAGCCTCCTACGTCAGAGGG
modifications: m5C9 strand 1, m5C15 strand 2 (M.SssI)
With B10, the binding result in the data set with rMcrA-S [3] is “no binding”.

B11: GCGG cassette (dsDNA)
DNA 1: CCCTCTGGCGGAGGAGGCTCCTGC
DNA 2: GCAGGAGCCTCCTCCGCCAGAGGG
modifications: m5C9 strand 1, m5C15 strand 2 (M.SssI)
For B11, in the data set with rMcrA-S [2], the binding result is “binds”.

B12: CCGA cassette (dsDNA)
DNA 1: CCCTCTGCCGAAGGAGGCTCCTGC
DNA 2: GCAGGAGCCTCCTTCGGCAGAGGG
modifications: m5C9 strand 1, m5C15 strand 2 (M.SssI)
For the molecule B12, the binding result with rMcrA-S [1] is given as “binds”.

B13: CGC cassette (dsDNA)
DNA 1: CCCTCTGACGCAGGAGGCTCCTGC
DNA 2: GCAGGAGCCTCCTGCGTCAGAGGG
modifications: m5C9 strand 1, m5C15 strand 2 (M.SssI)
Turning to B13, the binding result with rMcrA-S [3] was “no binding”.

B14: CGG and ACGG cassette (dsDNA)
DNA 1: CCCTCTGACGGAGGAGGCTCCTGC
DNA 2: GCAGGAGCCTCCTCCGTCAGAGGG
modifications: m5C9 strand 1, m5C15 strand 2 (M.SssI)
Regarding B14, the binding result with rMcrA-S [2] is listed as “binds”.
